This note sets out measurements from the supplement of paper PMC12783771.

B1: library; numbered along this chain (parent)
chain: MNIQIGELAKRTACPVVTIRFYEQEGLLPPPGRSRGNFRLYGEEHVERLQFIRHCRSLDMPLSDVRTLLSYRKRPDQDCGEVNMLLDEHIRQVESRIGALLELKHHLVELREACSGARPAQSCGILQGLSDCVCDTRGTTAHPSD

The variants in data set [1] derive from B1. Briefly: sfGFP reporter fluorescence (15 h) (µM FITC); higher = higher leak. The settings on record: library round: Round 0; ligand: none. An outline of the steps: (§1)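 Values are endpoint sfGFP fluorescence given as µM FITC equivalents. Fluorescence was read at 485/528 nm on a Synergy Neo2, and FITC standard curves were prepared in 50 mM sodium borate pH 8.5. Reactions of 1 μL combined BL21 Star (DE3) PANOx-SP extract, pPbrR-sfGFP reporter, 30 μg/mL GamS and linear PbrR templates (PCR-made, Echo-normalized to 5 nM), with 1 µM lead chloride, 30 µM zinc acetate or no metal, for 15 hr at 30 °C.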

The variants in data set [2] derive from B1. Kind of data set: sfGFP reporter fluorescence (15 h) (µM FITC); higher = stronger transcriptional activation. The settings on record: library round: Round 0. An outline of the steps: as §1

± gives the standard deviation of the averaged measurements.

On to L110S, for which the sfGFP reporter fluorescence is 0.05626 ± 0.00026 in data set [1], 0.05772 ± 0.00026 in data set [2] (ligand: 1 µM Pb) and 0.0614 ± 0.0018 in data set [2] (ligand: 30 µM Zn).
As for L110P, the sfGFP reporter fluorescence was determined as 0.0594 ± 0.0015 in data set [1], 0.0581 ± 0.0018 in data set [2] (ligand: 1 µM Pb) and 0.0575 ± 0.0015 in data set [2] (ligand: 30 µM Zn).
On the same counts, the results for R35A are 0.0658 ± 0.0029, 0.08833 ± 0.00052 and 2.06 ± 0.079.
On the same counts, the results for G116A are 0.0597, 0.0581 ± 0.0023 and 0.18 ± 0.063.
In the same order, the values of H54A are 0.05626 ± 0.00026, 0.0552 ± 0.0029 and 0.07074 ± 0.00052.
E43Q: the sfGFP reporter fluorescence in data set [1] came to 0.0614 ± 0.0018; in data set [2] (ligand: 1 µM Pb) it was 0.076 ± 0.0029; in data set [2] (ligand: 30 µM Zn), 1.16 ± 0.18.
In the same order, the values of E43A are 0.06304 ± 0.00052, 0.0969 ± 0.0044 and 1.66 ± 0.077.
In the same order, the values of E43K are 0.0594, 0.109 ± 0.02 and 2.36 ± 0.049.
For D76A, the sfGFP reporter fluorescence in data set [1] worked out at 0.06157 ± 0.00052; in data set [2] (ligand: 1 µM Pb) it was 0.0614 ± 0.0034; in data set [2] (ligand: 30 µM Zn), 0.202 ± 0.013.
Take L58D: the sfGFP reporter fluorescence worked out at 0.0599 ± 0.0023 in data set [1], 0.0623 in data set [2] (ligand: 1 µM Pb) and 0.0608 ± 0.0015 in data set [2] (ligand: 30 µM Zn).
Take N83F: the values for the sfGFP reporter fluorescence in data set [1], in data set [2] (ligand: 1 µM Pb) and in data set [2] (ligand: 30 µM Zn) were 0.0588 ± 0.00078, 0.07275 ± 0.00026 and 0.05882 ± 0.00026, respectively.
In the same order, the values of N83Y are 0.0594 ± 0.0015, 0.0762 ± 0.001 and 0.0645 ± 0.0015.
On the same counts, the results for N83H are 2.73 ± 0.37, 2.63 ± 0.52 and 3.526 ± 0.0086.
On the same counts, the results for C114A are 0.05607 ± 0.00052, 0.0559 ± 0.0013 and 0.0542.
Turning to C114N, the values for the sfGFP reporter fluorescence in data set [1], in data set [2] (ligand: 1 µM Pb) and in data set [2] (ligand: 30 µM Zn) were 0.0583 ± 0.0021, 0.0579 ± 0.0015 and 0.0546 ± 0.0015, respectively.
In the same order, the values of C114K are 0.0583 ± 0.0031, 0.0586 ± 0.001 and 0.0563 ± 0.0029.
On to G6P, for which the sfGFP reporter fluorescence in data set [1] is 0.061 ± 0.0013; in data set [2] (ligand: 1 µM Pb), 0.0601 ± 0.0015; in data set [2] (ligand: 30 µM Zn), 0.06084 ± 0.00052.
On the same counts, the results for G6V are 0.0618 ± 0.0013, 0.0618 ± 0.0013 and 0.0651 ± 0.0013.
Take G6I: the sfGFP reporter fluorescence stood at 0.05846 ± 0.00026 in data set [1], 0.0585 ± 0.0023 in data set [2] (ligand: 1 µM Pb) and 0.0618 ± 0.0018 in data set [2] (ligand: 30 µM Zn).
On the same counts, the results for G6A are 0.0504 ± 0.0018, 0.0491 ± 0.00052 and 0.09016 ± 0.00052.
On the same counts, the results for Y22W are 0.0658 ± 0.0029, 0.142 ± 0.00026 and 2.1 ± 0.13.
In the same order, the values of Y22V are 0.06359 ± 0.00026, 0.0614 ± 0.00078 and 0.0641 ± 0.0021.
In the case of Y22N, the results for the sfGFP reporter fluorescence in data set [1], in data set [2] (ligand: 1 µM Pb) and in data set [2] (ligand: 30 µM Zn) were 0.0619 ± 0.0031, 0.0607 ± 0.0029 and 0.0614 ± 0.0023, respectively.
On the same counts, the results for S63A are 0.0607 ± 0.00078, 0.0733 ± 0.0026 and 0.725 ± 0.037.
On the same counts, the results for C134W are 0.145 ± 0.0042, 0.4695 ± 0.0031 and 1.92 ± 0.047.
With C134H, the values for the sfGFP reporter fluorescence in data set [1], in data set [2] (ligand: 1 µM Pb) and in data set [2] (ligand: 30 µM Zn) were 0.0645, 0.0913 ± 0.0042 and 1.05 ± 0.012, respectively.
On to C134I, for which the sfGFP reporter fluorescence in data set [1] is 0.0678 ± 0.001; in data set [2] (ligand: 1 µM Pb), 0.113 ± 0.0044; in data set [2] (ligand: 30 µM Zn) it was 1.19 ± 0.11.
With D59A, the sfGFP reporter fluorescence in data set [1] was found to be 0.0693 ± 0.0036; in data set [2] (ligand: 1 µM Pb) it was 0.0755 ± 0.001; in data set [2] (ligand: 30 µM Zn) it was 0.291 ± 0.014.
In the same order, the values of L27V are 0.0625 ± 0.00078, 0.0717 ± 0.00078 and 0.349 ± 0.0044.
For the variant M60L K104V G128M, the sfGFP reporter fluorescence in data set [1] was 0.69 ± 0.028; in data set [2] (ligand: 1 µM Pb), 1.46 ± 0.085; in data set [2] (ligand: 30 µM Zn), 2.91 ± 0.039.
In the same order, the values of P30E are 0.0621 ± 0.0013, 0.08594 ± 0.00078 and 0.808 ± 0.075.
Turning to P30G, the figures for the sfGFP reporter fluorescence in data set [1], in data set [2] (ligand: 1 µM Pb) and in data set [2] (ligand: 30 µM Zn) were 0.05699 ± 0.00026, 0.0665 ± 0.0023 and 0.436 ± 0.021, respectively.
In the same order, the values of L107C G128M are 3.17 ± 0.33, 3.98 ± 0.14 and 4.14 ± 0.45.
Consider Q127A, for which the sfGFP reporter fluorescence in data set [1] is 0.0724 ± 0.0018; in data set [2] (ligand: 1 µM Pb), 0.0793 ± 0.0049; in data set [2] (ligand: 30 µM Zn), 0.299 ± 0.047.
With V82D, the results for the sfGFP reporter fluorescence in data set [1], in data set [2] (ligand: 1 µM Pb) and in data set [2] (ligand: 30 µM Zn) were 0.057 ± 0.0044, 0.0597 and 0.055, respectively.
In the same order, the values of V82R are 0.0605 ± 0.0015, 0.05937 ± 0.00052 and 0.0568 ± 0.001.
In the same order, the values of V82G are 0.0555 ± 0.0023, 0.0564 ± 0.001 and 0.0548 ± 0.0018.
On the same counts, the results for P15K are 0.0634, 0.0958 ± 0.01 and 1.34 ± 0.047.
Consider P29A, for which the sfGFP reporter fluorescence in data set [1] came to 0.0607 ± 0.0044; in data set [2] (ligand: 1 µM Pb), 0.0704 ± 0.0031; in data set [2] (ligand: 30 µM Zn) it was 0.455 ± 0.039.
In the same order, the values of I125C are 0.0596 ± 0.00078, 0.05901 ± 0.00052 and 0.0568 ± 0.0047.
On the same counts, the results for I125L are 0.055 ± 0.001, 0.05717 ± 0.00052 and 0.05552 ± 0.00026.
In the same order, the values of D64F are 0.267 ± 0.014, 1.01 ± 0.054 and 3.86 ± 0.28.
Consider D64Q, for which the sfGFP reporter fluorescence in data set [1] was 0.0579 ± 0.001; in data set [2] (ligand: 1 µM Pb), 0.0808 ± 0.0029; in data set [2] (ligand: 30 µM Zn), 0.781 ± 0.044.
For L68G, the sfGFP reporter fluorescence in data set [1] was determined as 0.06395 ± 0.00026; in data set [2] (ligand: 1 µM Pb) it was 0.05827 ± 0.00052; in data set [2] (ligand: 30 µM Zn), 0.0656 ± 0.00052.
